Laboratory results from PMC12834914, “The biochemical dynamics of the glycogen phosphatase laforin directly impact brain metabolism” (The Journal of Biological Chemistry, 2025).

T1: laforin C266S (LexA fusion) (human, UniProt O95278 1-331, C266S)
T1 construct: laforin, glycogen phosphatase encoded by EPM2A, catalytic cysteine mutated to serine; in mouse laforin the same change is C265S; also called LCS; laforin C/S; source: yeast two-hybrid fusion (S. cerevisiae, pEG202)
T1 sequence (looked up): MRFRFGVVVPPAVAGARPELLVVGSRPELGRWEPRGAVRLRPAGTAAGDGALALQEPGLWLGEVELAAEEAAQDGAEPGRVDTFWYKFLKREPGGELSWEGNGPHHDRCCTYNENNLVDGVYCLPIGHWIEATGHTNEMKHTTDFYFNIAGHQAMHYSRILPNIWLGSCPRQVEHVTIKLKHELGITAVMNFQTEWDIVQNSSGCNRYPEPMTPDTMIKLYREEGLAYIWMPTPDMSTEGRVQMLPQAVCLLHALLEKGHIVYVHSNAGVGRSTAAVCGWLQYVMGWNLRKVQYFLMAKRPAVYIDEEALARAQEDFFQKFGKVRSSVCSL


Biological target: T1, laforin C266S (LexA fusion)
Experiment: two-hybrid; LexA-laforin (pEG202) with Gal4 activation domain-malin or -PTG (pACT2) in S. cerevisiae; beta-galactosidase activity in yeast cell extract, in Miller Units
Conditions: partners not purified

fold signal against WT laforin [fold]	Binder
~2	protein targeting to glycogen (Gal4 activation domain fusion) (natural protein, UniProt Q9UQK1 1-317, looked up, protein targeting to glycogen (PTG); also called PTG; source: yeast two-hybrid fusion (S. cerevisiae, pACT2)) MSCTRMIQVLDPRPLTSSVMPVDVAMRLCLAHSPPVKSFLGPYDEFQRRHFVNKLKPLKSCLNIKHKAKSQNDWKCSHNQAKKRVVFADSKGLSLTAIHVFSDLPEEPAWDLQFDLLDLNDISSALKHHEEKNLILDFPQPSTDYLSFRSHFQKNFVCLENCSLQERTVTGTVKVKNVSFEKKVQIRITFDSWKNYTDVDCVYMKNVYGGTDSDTFSFAIDLPPVIPTEQKIEFCISYHANGQVFWDNNDGQNYRIVHVQWKPDGVQTQMAPQDCAFHQTSPKTELESTIFGSPRLASGLFPEWQSWGRMENLASYR
~2	malin (Gal4 activation domain fusion) (natural protein, UniProt Q6VVB1 1-395, looked up, malin; source: yeast two-hybrid fusion (S. cerevisiae, pACT2)) MAAEASESGPALHELMREAEISLLECKVCFEKFGHRQQRRPRNLSCGHVVCLACVAALAHPRTLALECPFCRRACRGCDTSDCLPVLHLIELLGSALRQSPAAHRAAPSAPGALTCHHTFGGWGTLVNPTGLALCPKTGRVVVVHDGRRRVKIFDSGGGCAHQFGEKGDAAQDIRYPVDVTITNDCHVVVTDAGDRSIKVFDFFGQIKLVIGGQFSLPWGVETTPQNGIVVTDAEAGSLHLLDVDFAEGVLRRTERLQAHLCNPRGVAVSWLTGAIAVLEHPLALGTGVCSTRVKVFSSSMQLVGQVDTFGLSLYFPSKITASAVTFDHQGNVIVADTSGPAILCLGKPEEFPVPKPMVTHGLSHPVALTFTKENSLLVLDTASHSIKVYKVDWG
